In the supplement of paper PMC9112550, “Optimization of the antimicrobial peptide Bac7 by deep mutational scanning” (BMC Biology, 2022):

system: Escherichia coli TOP10; assay: shrunken log2 fold change of peptide-encoding DNA abundance (4.5 h post-induction vs induction); higher = less antimicrobial activity (less host growth inhibition); settings: time post-induction: 4.5 h; library: site-saturation at positions 5, 18, 19, 20
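Note: peptides expressed intracellularly from a pBAD plasmid library in pooled LB shake-flask culture, induced with 0.3% L-arabinose, DNA abundance read by NGS, three biological replicates, DESeq2 with apeglm shrinkage.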

| Sequence | shrunken log2 fold change |
| --- | --- |
| RRIRTRPPRLPRPRPRPNGMPRP | -0.245 |
| RRIRTRPPRLPRPRPRPNGVPRP | -0.0427 |
| RRIRTRPPRLPRPRPRPNHPPRP | 0.0542 |
| RRIRTRPPRLPRPRPRPNIRPRP | -0.0979 |
| RRIRTRPPRLPRPRPRPNKFPRP | -0.37 |
| RRIRTRPPRLPRPRPRPNKGPRP | -0.28 |
| RRIRTRPPRLPRPRPRPNKKPRP | -0.26 |
| RRIRTRPPRLPRPRPRPNLAPRP | 0.0471 |
| RRIRTRPPRLPRPRPRPNPEPRP | -0.101 |
| RRIRTRPPRLPRPRPRPNPIPRP | -0.157 |
| RRIRTRPPRLPRPRPRPNPMPRP | -0.383 |
| RRIRTRPPRLPRPRPRPNQGPRP | -0.493 |
| RRIRTRPPRLPRPRPRPNQNPRP | -0.168 |
| RRIRTRPPRLPRPRPRPNQPPRP | 0.0619 |
| RRIRTRPPRLPRPRPRPNRKPRP | -0.104 |
| RRIRTRPPRLPRPRPRPNSEPRP | 0.0485 |
| RRIRTRPPRLPRPRPRPNSGPRP | 0.00712 |
| RRIRTRPPRLPRPRPRPNSTPRP | -0.363 |
| RRIRTRPPRLPRPRPRPNTEPRP | -0.011 |
| RRIRTRPPRLPRPRPRPNTQPRP | -0.0477 |
| RRIRTRPPRLPRPRPRPNVCPRP | 0.128 |
| RRIRTRPPRLPRPRPRPNVHPRP | -0.637 |

| Sequence | shrunken log2 fold change |
| --- | --- |
| RRIRTRPPRLPRPRPRPPAIPRP | 0.0134 |
| RRIRTRPPRLPRPRPRPPCWPRP | 0.171 |
| RRIRTRPPRLPRPRPRPPETPRP | 0.161 |
| RRIRTRPPRLPRPRPRPPFYPRP | -0.0308 |
| RRIRTRPPRLPRPRPRPPGSPRP | 0.00863 |
| RRIRTRPPRLPRPRPRPPIFPRP | -0.245 |
| RRIRTRPPRLPRPRPRPPKEPRP | -0.000639 |
| RRIRTRPPRLPRPRPRPPKSPRP | 0.556 |
| RRIRTRPPRLPRPRPRPPKYPRP | -0.103 |
| RRIRTRPPRLPRPRPRPPLMPRP | -0.0314 |
| RRIRTRPPRLPRPRPRPPLRPRP | 0.314 |
| RRIRTRPPRLPRPRPRPPMRPRP | 0.957 |
| RRIRTRPPRLPRPRPRPPPQPRP | 0.848 |
| RRIRTRPPRLPRPRPRPPSPPRP | 0.236 |
| RRIRTRPPRLPRPRPRPPSVPRP | 0.352 |
| RRIRTRPPRLPRPRPRPPTCPRP | 0.174 |
| RRIRTRPPRLPRPRPRPPVCPRP | 0.713 |
| RRIRTRPPRLPRPRPRPPVEPRP | 0.0458 |
| RRIRTRPPRLPRPRPRPPVGPRP | 1.18 |
| RRIRTRPPRLPRPRPRPPVKPRP | 0.385 |
| RRIRTRPPRLPRPRPRPPWNPRP | -0.288 |
| RRIRTRPPRLPRPRPRPPYDPRP | -0.398 |

| Sequence | shrunken log2 fold change |
| --- | --- |
| RRIRTRPPRLPRPRPRPPYGPRP | -0.195 |
| RRIRTRPPRLPRPRPRPQADPRP | -0.297 |
| RRIRTRPPRLPRPRPRPQALPRP | 0.231 |
| RRIRTRPPRLPRPRPRPQAVPRP | -0.111 |
| RRIRTRPPRLPRPRPRPQCQPRP | -0.0883 |
| RRIRTRPPRLPRPRPRPQCVPRP | -0.12 |
| RRIRTRPPRLPRPRPRPQEIPRP | -0.187 |
| RRIRTRPPRLPRPRPRPQHSPRP | -0.183 |
| RRIRTRPPRLPRPRPRPQIDPRP | -0.269 |
| RRIRTRPPRLPRPRPRPQKTPRP | -0.0581 |
| RRIRTRPPRLPRPRPRPQMEPRP | 0.00225 |
| RRIRTRPPRLPRPRPRPQNCPRP | -0.373 |
| RRIRTRPPRLPRPRPRPQNHPRP | -1.49 |
| RRIRTRPPRLPRPRPRPQPRPRP | 0.439 |
| RRIRTRPPRLPRPRPRPQTIPRP | -0.717 |
| RRIRTRPPRLPRPRPRPQTTPRP | 0.0779 |
| RRIRTRPPRLPRPRPRPQTWPRP | -0.18 |
| RRIRTRPPRLPRPRPRPQVNPRP | -0.587 |
| RRIRTRPPRLPRPRPRPQWCPRP | -0.0353 |
| RRIRTRPPRLPRPRPRPRAAPRP | 0.385 |
| RRIRTRPPRLPRPRPRPRCCPRP | 0.0734 |
| RRIRTRPPRLPRPRPRPREAPRP | 0.388 |

| Sequence | shrunken log2 fold change |
| --- | --- |
| RRIRTRPPRLPRPRPRPRHYPRP | -0.162 |
| RRIRTRPPRLPRPRPRPRIDPRP | -0.0699 |
| RRIRTRPPRLPRPRPRPRISPRP | -0.106 |
| RRIRTRPPRLPRPRPRPRLFPRP | 0.207 |
| RRIRTRPPRLPRPRPRPRLGPRP | 0.169 |
| RRIRTRPPRLPRPRPRPRLPPRP | 0.119 |
| RRIRTRPPRLPRPRPRPRNKPRP | -0.342 |
| RRIRTRPPRLPRPRPRPRRGPRP | 0.604 |
| RRIRTRPPRLPRPRPRPRTFPRP | 0.0284 |
| RRIRTRPPRLPRPRPRPRVDPRP | 0.181 |
| RRIRTRPPRLPRPRPRPRVIPRP | -0.12 |
| RRIRTRPPRLPRPRPRPRVNPRP | 0.0441 |
| RRIRTRPPRLPRPRPRPRVPPRP | 0.105 |
| RRIRTRPPRLPRPRPRPRWCPRP | 0.109 |
| RRIRTRPPRLPRPRPRPRYCPRP | -0.116 |
| RRIRTRPPRLPRPRPRPRYDPRP | -0.123 |
| RRIRTRPPRLPRPRPRPRYLPRP | -0.131 |
| RRIRTRPPRLPRPRPRPSAIPRP | -0.979 |
| RRIRTRPPRLPRPRPRPSDWPRP | 0.0388 |
| RRIRTRPPRLPRPRPRPSFPPRP | -0.261 |
| RRIRTRPPRLPRPRPRPSGPPRP | -0.339 |
| RRIRTRPPRLPRPRPRPSHCPRP | -0.0229 |

| Sequence | shrunken log2 fold change |
| --- | --- |
| RRIRTRPPRLPRPRPRPSIEPRP | -0.155 |
| RRIRTRPPRLPRPRPRPSIHPRP | -0.561 |
| RRIRTRPPRLPRPRPRPSITPRP | -0.484 |
| RRIRTRPPRLPRPRPRPSKPPRP | -0.487 |
| RRIRTRPPRLPRPRPRPSNEPRP | -0.34 |
| RRIRTRPPRLPRPRPRPSNRPRP | -0.0802 |
| RRIRTRPPRLPRPRPRPSPHPRP | -0.159 |
| RRIRTRPPRLPRPRPRPSRTPRP | 0.305 |
| RRIRTRPPRLPRPRPRPSRWPRP | 0.0135 |
| RRIRTRPPRLPRPRPRPSSCPRP | -0.222 |
| RRIRTRPPRLPRPRPRPSTFPRP | -0.49 |
| RRIRTRPPRLPRPRPRPSVGPRP | -0.055 |
| RRIRTRPPRLPRPRPRPSVTPRP | -0.0217 |
| RRIRTRPPRLPRPRPRPSWMPRP | -0.466 |
| RRIRTRPPRLPRPRPRPSWYPRP | -1.12 |
| RRIRTRPPRLPRPRPRPSYHPRP | -0.833 |
| RRIRTRPPRLPRPRPRPSYKPRP | -0.594 |
| RRIRTRPPRLPRPRPRPSYTPRP | -0.761 |
| RRIRTRPPRLPRPRPRPTCFPRP | -0.35 |
| RRIRTRPPRLPRPRPRPTDDPRP | -0.078 |
| RRIRTRPPRLPRPRPRPTEDPRP | 0.196 |
